Biological target: T1, VviWRKY40 (Vitis vinifera 'Muscat blanc à Petit …, UniProt E7BTN0 1-317)
T1 sequence: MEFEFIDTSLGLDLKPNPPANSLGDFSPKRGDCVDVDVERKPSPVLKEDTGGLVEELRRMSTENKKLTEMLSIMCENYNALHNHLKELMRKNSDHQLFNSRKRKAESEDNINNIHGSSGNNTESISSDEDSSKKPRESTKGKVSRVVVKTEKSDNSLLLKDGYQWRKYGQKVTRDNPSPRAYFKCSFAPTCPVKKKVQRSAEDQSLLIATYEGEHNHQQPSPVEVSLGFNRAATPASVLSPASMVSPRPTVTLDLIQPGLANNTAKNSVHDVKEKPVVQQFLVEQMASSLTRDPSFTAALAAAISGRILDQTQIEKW
Experiment: EMSA; shift without cold probe and with up to 50x cold probe; 50x and 200x unlabeled self-competitor tested; EMSA: LightShift Chemiluminescent kit, 50 ng protein, 15 ng probe, room temperature, 25 min (buffer and pH not stated); pull-down: poly(dI-dC), DTT, EDTA, EGTA, 4 °C, 1 h
Conditions: protein: recombinant; tags: 6xHis, pET32a fusion (19 kDa tag, 55 kDa in total); label: 3' biotin (Methods also says digoxigenin-labeled); blunt (duplex implied, only one strand printed)

B1: VviGT14 promoter 41-bp w-box fragment (dsDNA)
DNA 1: AGAAGTGAGAGGGTAAGTTGACCATGCACTCTCATCTAGAT
DNA 2: ATCTAGATGAGAGTGCATGGTCAACTTACCCTCTCACTTCT
**Q.** Does B1 bind?
**A.** binds
